The target in one data set is CggR (Bacillus subtilis, UniProt O32253 1-340). Briefly: cryo-EM; 4.3 A; tetramer, no effector; MST: 50 mM Tris-HCl pH 7.5, 150 mM NaCl, 50 mM MgCl2, 2 mM EDTA, 0.02% beta-mercaptoethanol; DeoR SEC mixes incubated 30 min on ice; CggR storage 20 mM Tris-HCl pH 7.5, 100 mM NaCl, 0.02% beta-mercaptoethanol, complex formed 30 min on ice. The following applies: protein: recombinant; tags: N-terminal GIDPFT cloning artifact after TEV cleavage (His6-V5 removed); chain copies: 4; blunt.

Data set [1] concerns the molecule itself. The experiment in a line: crystal structure; DeoR co-crystallised with the 18 bp DNA duplex OL18 (left half-operator); hanging drop, 18°C; two dimers in the asymmetric unit, tetramer formed with a symmetry-related dimer; 3.7 Å.
Data set [2] has as its target T1, DeoR (Bacillus subtilis, UniProt P39140 2-313).
T1 sequence: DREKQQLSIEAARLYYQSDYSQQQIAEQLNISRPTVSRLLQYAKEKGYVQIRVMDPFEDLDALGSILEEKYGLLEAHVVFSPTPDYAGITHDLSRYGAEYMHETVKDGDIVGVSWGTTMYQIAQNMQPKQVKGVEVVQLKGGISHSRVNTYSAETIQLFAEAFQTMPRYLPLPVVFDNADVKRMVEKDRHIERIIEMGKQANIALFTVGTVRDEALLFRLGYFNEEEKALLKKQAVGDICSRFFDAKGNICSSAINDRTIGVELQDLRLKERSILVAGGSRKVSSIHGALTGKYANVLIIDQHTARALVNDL
The experiment in a line: X-ray crystallography; 3.7 A; protein about 8 mg/ml; 75 mM CaCl2, 25 mM MgCl2; MST: 50 mM Tris-HCl pH 7.5, 150 mM NaCl, 50 mM MgCl2, 2 mM EDTA, 0.02% beta-mercaptoethanol; DeoR SEC mixes incubated 30 min on ice; CggR storage 20 mM Tris-HCl pH 7.5, 100 mM NaCl, 0.02% beta-mercaptoethanol, complex formed 30 min on ice. The following applies: protein: recombinant; tags: N-terminal GIDPFT cloning artifact after TEV cleavage (His6-V5 removed); chain copies: 4; blunt.

Data set [3] has as its target T1, DeoR. The experiment in a line: MST; DeoR 4 uM; 50 mM MgCl2; Hill coefficient slightly below 1; MST: 50 mM Tris-HCl pH 7.5, 150 mM NaCl, 50 mM MgCl2, 2 mM EDTA, 0.02% beta-mercaptoethanol; DeoR SEC mixes incubated 30 min on ice; CggR storage 20 mM Tris-HCl pH 7.5, 100 mM NaCl, 0.02% beta-mercaptoethanol, complex formed 30 min on ice. Particulars: protein: recombinant; tags: N-terminal GIDPFT cloning artifact after TEV cleavage (His6-V5 removed); chain copies: 4; blunt.

The target of data set [4] is T1, DeoR. Briefly: SEC; about 56 uM DeoR, protein:DNA 2:1; MST: 50 mM Tris-HCl pH 7.5, 150 mM NaCl, 50 mM MgCl2, 2 mM EDTA, 0.02% beta-mercaptoethanol; DeoR SEC mixes incubated 30 min on ice; CggR storage 20 mM Tris-HCl pH 7.5, 100 mM NaCl, 0.02% beta-mercaptoethanol, complex formed 30 min on ice. The following applies: protein: recombinant; tags: N-terminal GIDPFT cloning artifact after TEV cleavage (His6-V5 removed); chain copies: 4; blunt.

Data set [5] deals with T1, DeoR. Briefly: SEC; about 56 uM DeoR, protein:DNA 4:1; MST: 50 mM Tris-HCl pH 7.5, 150 mM NaCl, 50 mM MgCl2, 2 mM EDTA, 0.02% beta-mercaptoethanol; DeoR SEC mixes incubated 30 min on ice; CggR storage 20 mM Tris-HCl pH 7.5, 100 mM NaCl, 0.02% beta-mercaptoethanol, complex formed 30 min on ice. Particulars: protein: recombinant; tags: N-terminal GIDPFT cloning artifact after TEV cleavage (His6-V5 removed); chain copies: 4; blunt.

Data set [6] deals with the molecule itself. The experiment in a line: cryo-EM structure; CggR with the 45 bp operator DNA OLR (molar ratio 4:1.5), SEC-purified complex, 0.86 mg/ml; C2 symmetry, 4.3 Å.
Data set [7] deals with the molecule itself. Briefly: cryo-EM 2D classification; purified CggR-OLR complex (0.86 mg/ml) with 2 mM FBP, about 15 min on ice.

B1: CggR OLR (45 bp) (dsDNA)
DNA 1: TGACGGGACGTTTTTTGTCATAGCGGGACATATAATGTCCAGCAA
DNA 2: TTGCTGGACATTATATGTCCCGCTATGACAAAAAACGTCCCGTCA
In the case of B1, the binding result with CggR is “binds”.

B2: DeoR from Bacillus subtilis (deoxyribonucleoside regulator, SorC/DeoR subfamily repressor) (natural protein)
chain: GIDPFTDREKQQLSIEAARLYYQSDYSQQQIAEQLNISRPTVSRLLQYAKEKGYVQIRVMDPFEDLDALGSILEEKYGLLEAHVVFSPTPDYAGITHDLSRYGAEYMHETVKDGDIVGVSWGTTMYQIAQNMQPKQVKGVEVVQLKGGISHSRVNTYSAETIQLFAEAFQTMPRYLPLPVVFDNADVKRMVEKDRHIERIIEMGKQANIALFTVGTVRDEALLFRLGYFNEEEKALLKKQAVGDICSRFFDAKGNICSSAINDRTIGVELQDLRLKERSILVAGGSRKVSSIHGALTGKYANVLIIDQHTARALVNDL
notes: cloning artifact that remains at the N-terminus after TEV PR cleavage; DBD residues 1-55, EBD residues 56-313; in the crystal model residue T1 is the last residue of the cloning artifact; also called apo-DeoR; source: E. coli BL21 (DE3), purified (Ni-NTA, TEV PR cleavage, reverse Ni-NTA); LB broth for structural studies, minimal medium for mass photometry and SEC; not shown: His6, N-terminal, …
B2: the “stoichiometry N” value in data set [1] worked out at 4.

B3: OL18 (dsDNA)
DNA 1: ATTGAACAAAATTTCAAT
DNA 2: ATTGAAATTTTGTTCAAT
Consider B3, for which the binding result with DeoR [2] is listed as “binds”.

B4: OLR65 (dsDNA)
DNA 1: GTGACACGTTCAAACCTTTCATTGAACAAAATTTCAATTACCAATTTACATATGTTCAAAAGTCG
DNA 2: CGACTTTTGAACATATGTAAATTGGTAATTGAAATTTTGTTCAATGAAAGGTTTGAACGTGTCAC
With B4, in the data set with DeoR [3], the Kd is roughly 30 µM.

B5: OR24 (dsDNA)
DNA 1: TACCAATTTACATATGTTCAAAAG
DNA 2: CTTTTGAACATATGTAAATTGGTA
Consider B5, for which the binding result with DeoR [4] was “no binding”.

B6: OL44 (dsDNA)
DNA 1: CACGTTCAAACCTTTCATTGAACAAAATTTCAATTACCAATTTACA
DNA 2: TGTAAATTGGTAATTGAAATTTTGTTCAATGAAAGGTTTGAACGTG
For B6, the binding result in the data set with DeoR [5] is on record as “no binding”.

B7: CggR from Bacillus subtilis (central glycolytic genes regulator, SorC/CggR subfamily repressor) (natural protein)
chain: GIDPFTMNQLIQAQKKLLPDLLLVMQKRFEILQYIRLTEPIGRRSLSASLGISERVLRGEVQFLKEQNLVDIKTNGMTLTEEGYELLSVLEDTMKDVLGLTLLEKTLKERLNLKDAIIVSGDSDQSPWVKKEMGRAAVACMKKRFSGKNIVAVTGGTTIEAVAEMMTPDSKNRELLFVPARGGLGEDVKNQANTICAHMAEKASGTYRLLFVPGQLSQGAYSSIIEEPSVKEVLNTIKSASMLVHGIGEAKTMAQRRNTPLEDLKKIDDNDAVTEAFGYYFNADGEVVHKVHSVGMQLDDIDAIPDIIAVAGGSSKAEAIEAYFKKPRNTVLVTDEGAAKKLLRDE
notes: cloning artifact that remains at the N-terminus after TEV PR cleavage; DBD and EBD connected by residues 92-94; also called apo-CggR; source: E. coli BL21 (DE3), purified (Ni-NTA, hydroxyapatite, TEV PR cleavage, reverse Ni-NTA, Mono-Q ion exchange); not shown: His6, N-terminal, cleaved
With B7, the “stoichiometry N” value in data set [6] came out at 4; in data set [7], 2.

B8: OLR39 (dsDNA)
DNA 1: ATTGAACAAAATTTCAATTACCAATTTACATATGTTCAA
DNA 2: TTGAACATATGTAAATTGGTAATTGAAATTTTGTTCAAT
Consider B8, for which the binding result with DeoR [5] was “binds”.

The record behind these values is paper PMC11229326, “Structural characterization of two prototypical repressors of SorC family reveals tetrameric assemblies on DNA and mechanism of function” (Nucleic Acids Research, 2024).
